Measurements as given in US20120107364A1 (ACTGEN, published 2012).

What was measured:
[1] = target: T1, human-derived PODXL2 protein (Homo sapiens podocalyxin-like (PODXL), transcript variant 2, NM-005397.3), full … (human, UniProt O00592 23-558); assay: flow cytometry on Ba/F3 cells expressing PODXL2 against negative control Ba/F3 cells (FIG. 1)
T1 construct: 526 amino acids; also called full-length PODXL2 gene
T1 sequence: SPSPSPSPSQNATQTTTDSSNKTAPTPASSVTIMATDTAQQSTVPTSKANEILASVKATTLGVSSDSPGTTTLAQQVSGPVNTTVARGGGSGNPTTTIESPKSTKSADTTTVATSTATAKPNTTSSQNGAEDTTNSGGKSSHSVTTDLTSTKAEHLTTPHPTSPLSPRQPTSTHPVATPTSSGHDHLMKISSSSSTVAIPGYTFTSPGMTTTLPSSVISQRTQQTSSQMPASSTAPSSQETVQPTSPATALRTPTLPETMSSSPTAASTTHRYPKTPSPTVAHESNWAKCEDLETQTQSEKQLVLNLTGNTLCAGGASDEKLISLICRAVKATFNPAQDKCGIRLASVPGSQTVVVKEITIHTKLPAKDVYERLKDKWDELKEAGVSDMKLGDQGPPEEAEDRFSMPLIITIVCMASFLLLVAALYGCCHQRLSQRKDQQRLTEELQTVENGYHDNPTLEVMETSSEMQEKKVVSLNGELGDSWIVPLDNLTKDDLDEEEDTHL
Method: (§1) To each sample of the cell suspension, 50 μl of the hybridoma culture supernatant or 2-μg/ml of the purified antibody (hereinafter, referred to as an “antibody solution”) was added, and the antibody was reacted with the cells. As an isotype control of the antibody solution, a wash buffer containing 2 μg/ml of each of mouse IgG1 (BioLegend, 400412), mouse IgG2a (BioLegend, 400224), and mouse IgG2b (BioLegend, 400324) was used. The hybridoma culture supernatant was reacted with the target cells at room temperature for 30 minutes, followed by centrifugation at 700×g for 2 minutes. Then, a culture supernatant was removed. Further, 100 μl of a wash buffer was added, followed by centrifugation at 700×g for 2 minutes again. A supernatant was removed. Then, the cells were washed.
Next, to the cell pellets after the washing, 50 μl of Goat anti-mouse IgG, F(ab′) 2-PE (PE=phycoerythrin, Beckman Coulter, IM0855) diluted 200-fold with a wash buffer was added as a secondary antibody for detection, and reacted in the dark at room temperature for 30 minutes. The reaction was followed by centrifugation at 700×g for 2 minutes. A supernatant was removed. Further, 100 μl of a wash buffer was added, followed by centrifugation at 700×g for 2 minutes again. A supernatant was removed. […] The reactivity between the antibody and the cells was analyzed by a flow cytometer (Beckman Coulter, FC500 MPL).

[2] = target: T2, PODXL2, positions 1 to 370 (human, UniProt O00592 23-402); assay: flow cytometry on Ba/F3 cells expressing the truncated PODXL2
T2 construct: One of the 14 C-terminal truncations; Expressed on Ba/F3 cells; also called R370
T2 sequence: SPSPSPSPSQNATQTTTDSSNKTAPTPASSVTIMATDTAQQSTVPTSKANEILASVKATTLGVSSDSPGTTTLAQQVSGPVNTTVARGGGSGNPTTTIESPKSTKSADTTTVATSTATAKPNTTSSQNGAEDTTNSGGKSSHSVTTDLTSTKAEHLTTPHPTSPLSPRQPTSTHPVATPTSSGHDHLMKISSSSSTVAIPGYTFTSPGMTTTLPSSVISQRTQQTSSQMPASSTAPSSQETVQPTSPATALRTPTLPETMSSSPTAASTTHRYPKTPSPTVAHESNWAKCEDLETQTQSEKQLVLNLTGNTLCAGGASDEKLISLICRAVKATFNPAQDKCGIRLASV
Method: as §1
(§2) Next, to the cell pellets after the washing, 50 μl of Goat anti-mouse IgG, F(ab′) 2-PE (PE=phycoerythrin, Beckman Coulter, IM0855) diluted 200-fold with a wash buffer was added as a secondary antibody for detection, and reacted in the dark at room temperature for 30 minutes. The reaction was followed by centrifugation at 700×g for 2 minutes. A supernatant was removed. Further, 100 μl of a wash buffer was added, followed by centrifugation at 700×g for 2 minutes again. A supernatant was removed. Then, the cells were washed. Thereafter, the cells were suspended in an appropriate amount of a wash buffer. The reactivity between the antibody and the cells was analyzed by a flow cytometer (Beckman Coulter, FC500 MPL).
(§3) Thereafter, by the same method as in Example 1 (4) (the virus packaging and thereafter), Ba/F3 cells containing the PODXL2 gene sequences of various chain lengths were prepared. Further, by the same method as in Example 4, the reactivity between the ACT36-27_{—}5D1 antibody and the Ba/F3 cells expressing the PODXL2 molecules of various chain lengths was analyzed by a flow cytometer (FIG. 10).

[3] = target: T3, PODXL2, positions 1 to 310 (human, UniProt O00592 23-342); assay: as above
T3 construct: One of the 14 C-terminal truncations; Expressed on Ba/F3 cells; also called R310
T3 sequence: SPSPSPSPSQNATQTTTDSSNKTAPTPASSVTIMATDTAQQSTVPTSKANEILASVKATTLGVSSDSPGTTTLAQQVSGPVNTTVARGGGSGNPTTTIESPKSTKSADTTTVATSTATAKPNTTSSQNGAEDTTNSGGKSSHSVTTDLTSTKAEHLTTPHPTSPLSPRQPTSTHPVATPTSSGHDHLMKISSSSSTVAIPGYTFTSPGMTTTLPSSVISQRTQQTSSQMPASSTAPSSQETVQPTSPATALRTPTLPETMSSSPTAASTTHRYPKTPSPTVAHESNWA
Method: as §1, §2, §3

[4] = target: T4, PODXL2, positions 1 to 390 (human, UniProt O00592 23-422); assay: as above
T4 construct: One of the 14 C-terminal truncations in 10-residue steps; Expressed on Ba/F3 cells; also called R390
T4 sequence: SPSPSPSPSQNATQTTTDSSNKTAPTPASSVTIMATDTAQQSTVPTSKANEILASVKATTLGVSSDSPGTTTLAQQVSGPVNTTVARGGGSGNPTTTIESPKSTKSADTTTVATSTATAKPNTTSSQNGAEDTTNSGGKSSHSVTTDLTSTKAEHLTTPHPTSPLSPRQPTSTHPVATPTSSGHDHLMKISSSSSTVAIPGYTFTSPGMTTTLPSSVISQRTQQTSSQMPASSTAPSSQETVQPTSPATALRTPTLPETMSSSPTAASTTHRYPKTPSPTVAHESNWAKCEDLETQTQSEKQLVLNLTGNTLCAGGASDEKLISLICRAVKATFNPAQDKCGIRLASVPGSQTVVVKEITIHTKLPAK
Method: as §1, §2, §3

binding result [1]: binds
binding result [2]: no binding
binding result [3]: no binding
binding result [4]: no binding
B1: ACT36-27-5D1 antibody (antibody, V domains shown)
VH: EVQLQQSGPELVKPGASVKMSCKASGYTFTSYVMHWVKQKPGQGLEWIGYIHPYNDGIKYNEKFKGKATLTSDKSSSTAYMDLSSLTSEDSAVYYCARSWDWYFDVWAAGTTVTVSS
VL: QIVLTQSPAIMSASPGEKVSMTCSASSSVSYMHWYQQKSGTSPKRWIYDTSKLASGVPARFSGSGSGTSYSLTISSMEAEDAATYYCLQWSSNPPTFGGGTKLE
notes: also called anti-PODXL2 antibody ACT36-27-5D1; anti-ACT36-27-5D1 monoclonal antibody
